Results published in publication PMC10328973.

Key:
[1] = target: UKNP2.2.1 E2E1-I53-50A trimer; experiment: ELISA; conditions: read off a plot
[2] = target: UKNP5.2.1 E2E1-I53-50A trimer; experiment: ELISA; conditions: read off a plot
[3] = target: UKNP5.2.1 E2E1-I53-50A trimer (permuted HCV envelope glycoprotein, genotype 5) (hepatitis C virus, strain UKNP5.2.1 (genotype 5))

Substance: gl-AR3A F54L; G50R
- other: AUC ([1]; parent: est. 0.001): 0.001
- other: AUC ([2]; parent: est. 3.4): 0.001

Substance: gl-AR3C G50R
- other: AUC ([1]; parent: est. 2.1): 0.001
- other: AUC ([2]; parent: est. 0.65): 0.001

Substance: AR3C (mature bNAb, IgG) (antibody)
- Supplementary Figure 7b: IC50 of neutralization of UKNP5.2.1 HCVpp (% infectivity, serial dilution of IgG), AR3C IgG [3]: 0.07 µg/mL

Substance: gl-AR3A G50R
- other: AUC ([1]; parent: est. 0.001): 0.001
- other: AUC ([2]; parent: est. 3.4): 0.001

Substance: gl-HEPC74 F54L
- other: AUC ([1]; parent: est. 1.0): 1.9
- other: AUC ([2]; parent: est. 0.010): 0.03

Substance: gl-AR3A F54L
- other: AUC ([1]; parent: est. 0.001): 0.001
- other: AUC ([2]; parent: est. 3.4): 1.4

Substance: gl-AR3C F54L
- other: AUC ([1]; parent: est. 2.1): 18
- other: AUC ([2]; parent: est. 0.65): 4.8

Substance: gl-HEPC74 F54L; G50R
- other: AUC ([1]; parent: est. 1.0): 12
- other: AUC ([2]; parent: est. 0.010): 0.11

Substance: gl-AR3C F54L; G50R
- other: AUC ([1]; parent: est. 2.1): 0.001
- other: AUC ([2]; parent: est. 0.65): 0.001

Substance: HEPC3 (mature bNAb, IgG) (antibody)
- Supplementary Figure 7b: IC50 of neutralization of UKNP5.2.1 HCVpp (% infectivity, serial dilution of IgG), HEPC3 IgG [3]: 0.14 µg/mL

Substance: gl-HEPC74 G50R
- other: AUC ([1]; parent: est. 1.0): 7.4
- other: AUC ([2]; parent: est. 0.010): 0.04
